The text below walks through data of the DeepSol protein solubility set.

The nature of the series: soluble on expression in E. coli; label from the status in PepcDB or PDB records.
“MQILTLISWDFKRNNNFFNQAVLNPYEYWADILEKNGISRYVILLTCNRVEIYLRAGFPEDLEAMKPNVLHDEEAIKHLMEVSSGLDSMSLGENEILKQVKEAYELSVRNGKVDKVLSLIFQKAIFVGKKVRSETEISRGKVSVPSIVYDILSSRVVQKVLIIGNGMIAGEIAPYLSGKFEVTIAGRNIDHVKDLASKYNYSYTTINDLHELIMRNDAIISATSSKTPIIRREEMVEGKLYIDLGNPRNIEDKPGADIITIDDIYSVSNRNGSARMESVDEARRIIEIEMASLMNKIKDVMIDEIFADFYKFAVVVQKMEIEKFSRMHPEIPASDVEAFAHSMINKVMNIPVMTLKSVARSQSNQDFSRIFSKFYDNFSDLVSAALQSYEGRQDTQSLRDRTRRLLQRS”: the “soluble on expression in E. coli” value is listed as “not soluble”.
For the sequence “MQINNQSRDVFYVSDGTAITCETLGHVVLGQFPFIPNEKTFPFVESQDKVADVVKEIETSYQRNGVKPLVFFSIVVPGVREMLLEAPAYSYDVLESIVQKVQDDIQMAPAPKLQRSRSVGKDSDTYFDRIAAIEYTLAHDDGITLKGLEQADIILLGVSRSGKTPTSLYMAMQFGLRVVNYPFIAEDVKMMRLLPEFEVHRHKLFGLTITPERLNEIRENRLSGSDYASEEQCKLELDTVEALFRREAIPYINTSSLSVEEISTRILERAGMKRRLFGLEHHHHHH”, the “soluble on expression in E. coli” value was “soluble”.
Next, “MQKAVVMDEQAIRRALTRIAHEIIERNKGIDGCVLVGIKTRGIYLARRLAERIEQIEGASVPVGELDITLYRDDLTVKTDDHEPLVKGTNVPFPVTERNVILVDDVLFTGRTVRAAMDAVMDLGRPARIQLAVLVDRGHRELPIRADFVGKNVPTSRSELIVVELSEVDGIDQVSIHEK”: “soluble”; “MQKELFRQSPDSNKLILFFNGWAMTREAVSHLAIPPEYDLLHVWDYRTDTLHFDWSPYREICLSAWSMGVWAAERLSREGRLPSVVSAVAICGTGYPMDDTMGIPLDIFRGTLDGLTEENRLRFNRRMCGGKSLKHLLEALAARETDEIKAELGRVYEEEEKRLKSDDPHPVAPLSWDKALIGAKDRIIPAKNQQAFWQMRGCRNIETVAEGDHYLFNRFTEWEQLWS”: “not soluble”; “MQKLINSVQNYAWGSKTALTELYGIANPQQQPMAELWMGAHPKSSSRITTANGETVSLRDAIEKNKTAMLGEAVANRFGELPFLFKVLCAAQPLSIQVHPNKRNSEIGFAKENAAGIPMDAAERNYKDPNHKPELVFALTPFLAMNAFREFSDIVSLLQPVAGAHSAIAHFLQVPNAERLSQLFASLLNMQGEEKSRALAVLKAALNSQQGEPWQTIRVISEYYPDDSGLFSPLLLNVVKLNPGEAMFLFAETPHAYLQGVALEVMANSDNVLRAGLTPKYIDIPELVANVKFEPKPAGELLTAPVKSGAELDFPIPVDDFAFSLHDLALQETSIGQHSAAILFCVEGEAVLRKDEQRLVLKPGESAFIGADESPVNASGTGRLARVYNKL”: “not soluble”.
Consider “MQKSSLISHRFSFCKVCGGKANGNHFGIQSCRACAAFFRRAANSKWSSMKCTTFGCADMLVPCKPCRLKRCQEQGMSTTNFQFDRDALKRLLVPKSVEKFVGRPESVIFCDMTESTSKTFIDIRPLIEKTSNILKNGAEGPIFGRNQLQKLANGFENYTNEISVKMIKKIGKSETADCWEYYITTTAKWLNYFNGFKLLSHELQVGKYVFFIEIFSK”, for which the “soluble on expression in E. coli” value is recorded as “not soluble”.
Next, “MQLEYPLTNHMKGNIVLTQEKTAIAYYRVRSETVMLTDVEKKLKTKRKVARALNRLKANDGFEINLLPVNADIRGKMGAMRSLIDSNNYEVGVDKLMKTAMVLEQEMGMVYEYTWIIGVPLIKKDLAVDLKETVTNSISNVSEKFVKGLGFDVELAEYWEKDYREQELEVYQNLSELLIERLTEDELYYYQAYQFLKNIPHERQDVLSSQNLDNLMATKIKPLFGGGLHLNCDYGESYISYLPMGDVGVFLDGNHFLEVVQKMPFPVEVKIQATFAESKGQLALSGRSSRARTRTKNIMQEAHLAGSKQKRKIVEGQLSLDDLDQKIDDGVDIIDWKAVIVVSGSTKKQMRARKKYLINRFDSLDIPLIKATFDNPYLFQSTLFGNFLRMQTSRWQHTSTIESFAELNFFTSLHAGTKLGFYLGRVDTTLEEKEDRKSIISSSKNLIFMNMLLANKEGVDGKKTNNPHWALTGDTGNGKSVTAKTLFMQMALLKDRVLYIDPKKEMRKQFMYTINDPEYQKKYPLDVDFVKSFNFVTLDVRDTKNHGVLDPIVLFDETEAIATTKAMLTNIYEGTWNLKQKTEINEAIAKVVLERKEGKKVGFWHVIERLVESEISDVKDMGRFILSTVKGSVLELAFSHGDVEGLSFDKKVTILEIEDLDLPTDKNENLDENKRLSVTLMFALGTFCSKFGSRNPKEETVTFFDESWIFQSSPEGKAILKSMKRIGRSFNNFLVLITQSTNDLDDSEDGTGFGTVICFDEVQNREGVLKYLNLPVNEINMKWVSNMVQGQCLMKDMFGQTNRIVVHVIFEEWLELFKTVDDTEASKMENRFVA”: “not soluble”; “MQLHEQIANISVTFNDIPRSDHSMTPTELCYFDDFATTLVVDSVLNFTTHKMSKKRRYLYQDEYRTARTVMKTFREQRDWTNAIYGLLTLRSVSHFLSKLPPNKLFEFRDHIVRFLNMFILDSGYTIQECKRYSQEGHQGAKLVSTGVWSRGDKIERLSGVVCLLSSEDEDSILAQEGSDFSVMYSTRKRCSTLWLGPGAYINHDCRPTCEFVSHGSTAHIRVLRDMVPGDEITCFYGSEFFGPNNIDCECCTCEKNMNGAFSYLRGNENAEPIISEKKTKYELRSRS”: “not soluble”; “MQLISDRTSGAIHEIFGRDKALIGMIHCPPFPGAPRYRGETMDTIVDACLRDAERLVAGGLHGLVVENHGDIPFSKPDDIGPETAACLGVVTDRIRRAFGVPLGINVLANAPLPALAAAVAGGALFIRVNQWANAYVANEGFMEGRAAEAMRYRSLLRAEHVRIFADSHVKHGSHAIVADRSIPELTRDLAFFDADCIIATGQRTGDSATIAEIEEIGGATHLPLLVGSGVTEANVVEILKRTNGVIVASSLKEGGVWWNPVDPERVARFVAAAREGLDGLEHHHHHH”: “not soluble”.
Regarding “MQLPLSYWIESTQFPTFPRLSENIKTKVAIIGAGITGITTAYLLAKEGIDVVLIDSGRILNGTTGHTTAKVTAQHDLIYDELINHFGVEKARLYYESNNQALQFINKTVQTYKIDCNFSNEDSYLYTTTDNGLRNLSKEYEAYQKLNIPCDYVQSLSIPIPVQSALVMKNQAQFHPLLYLKTLLEKFVEMGGKVYEQTTAMDVEKGDYSQIITKEGHHITCEYVVSCSHFPFYDANSFFFTRMYAERSYALAIKAKTEYPGGMYLSIDDPKRSLRYITNNGEKLILIGGESHKTGQGINTMLHYEALYSFAEATFGIDEVSYRWSAQDLITLDKLPYIGHINERNPNIFVATGYRKWGMTTGTAAAHLLKDSILKVHSPYKELYAPSRFHANPDIKTFLSQNIDVAKHLIAGLEHHHHHH”, the “soluble on expression in E. coli” value was “not soluble”.
“MQLRGEVTPHIGRHAFAVLAILKGMLLETLQKVFGHKSITYVLRIHSLVRRRRSNLFLEVAHLYDQRADQLSQLLIRACFNNCQFHTKILFKILNMRQSNAHPISFPNR”: the “soluble on expression in E. coli” value is recorded as “not soluble”.
Turning to “MQLTAKASLTNALLISICTPDFKGDEATESLAELARLVTTLGFKVVGTQSQKQSSTKKVNVLGLGKLAEIAHLTGNQGEVEDMEEVEDLSVGEQTDDVEFMVNSSDIPSDNLPFACADVVVFDCDLSPSQLRNVENQLGVEVFDRTGIIIEIFSRHARTKTAKLQVEIARLNYVAPRLRETSCGDKERQMGKGAGETTLELNRRAVRDQLAELKRELVSVQHEMKGRRTQRSELFCVALVGYTNAGKSSMMRAITGSDVEGENKLFATLDTTVRALFPITQPRILVSDTVGFIKKLPHDLVASFHSTLAEAQDASLLLYVVDASDPSFRAQLDVVHEVLDEVGVEDSKKLLVLNKSDQLSIEQQQALMEEFPNAMMTSARNPADVSKLHKYIVGIAQEEMIEEEIIVPYTANGIIGEIRSRMSVTKEEYENSHIKLTVRSNAIDLARLKKRMLSLLEHHHHHH”, the “soluble on expression in E. coli” value is “not soluble”.
Regarding “MQLYYLGPKGTFSYLACRQYFSEKETTFQPKSNLFEVIKAVADDDTSIGVVPIENSIEGTINIVADALAQQDVFAHGEIRLDINFALYGNGTDSISDIKKVYSIAPAISQTTNYIHQHQFDYDYVDSTIQSLTKIENGVAAIAPLGSGEAYGFTPIDTHIEDYPHNVTRFLVIKNQQQFDQNATSLMFLITPMHDKPGLLASVLNTFALFNINLSWIESRPLKTQLGMYRFFVQADSAITTDIKKVIAILETLDFKVEMIGAFNLEHHHHHH”, the “soluble on expression in E. coli” value is “not soluble”.
Next, “MQPASAKWYDRRDYVFIEFCVEDSKDVNVNFEKSKLTFSCLGGSDNFKHLNEIDLFHCIDPNDSKHKRTDRSILCCLRKGESGQSWPRLTKERAKLNWLSVDFNNWKDWEDDSDEDMSNFDRFSEMMNNMGGDEDVDLPEVDGADDDSQDSDDEKMPDLE”: “not soluble”; “MQQFATLSLASLLMLGTFTAFAAENGDAPASGWHIDDSATKGASGQQGMFDGVRLTEQQRQQMRDLMHQSRQDKPAFNTEDVKAMHKLVTAETFDEAAVRAQITRMMSVQIERQIQMTRVRNQMYNLLTPAQKEILELKHKQRMKEMQQQISMFNQMVAPSSGTTNHTETDSPELEHHHHHH”: “soluble”; “MQQIFFKDPILGEVLFDQQTKWMYELVETEAFRRLRNIKQLGINFHFYPGGVHTRYSHSLGVYELLRRILNTPAFAPIDENKKQTVLVAGLLHDIGHAPHSHAFEIYFAKAPNFKKELFIHEEVTTLFVNSEPIKSILKANQIDPKLVAALIDENKELKPSNYWMRQLISSDLDADRMDYLLRDSYFTGTSHSLIDYQTIIKEMDCVKVKGIYEIFFKDKCLPLIENFLITRHHMYQSIYSDGRSISTELNLWFVFQRIKDLVDKNQFDFNGYKTLEQVCLPLLKNEHFDKKMLPAFVKLDDYVFQSFFVNLYQTTKDKILKKLLDSYLNSLKFEIKFYETKEQRDLDFEKQASKYKDAKYFITKFNNQFKGFYEGWSSHKNELKIKTMQNKHTNLSEISMLVKRSNELFFENALYKWANVFYRL”: “soluble”.
As for “MQQLLISILEDLNNTSTDIIASAVISTDGLPMATMLPSHLNSDRVGAISATLLALGSRSVQELACGELEQVMIKGKSGYILLSQAGKDAVLVLVAKETGRLGLILLDAKRAARHIAEAI”, the “soluble on expression in E. coli” value was “not soluble”.
Next, “MQQNKCPDCEVELEWTGQYHCGQCESDFKKVGFCPDCGAELEKLQACGAANYFCNTCNELKSKSRVRFEFQKISLEHHHHHH”: “soluble”.
“MQRLFRQKMIINSLGTSPTSVDTLVELTGASPATIRRDLTDLEGHGQLRKVHGGAVAVNLRGTPMPYSLRSAENAESKTAIAQLVSRLVTDDMSVIIDNGSTMVAVAQALQERPITALCLSLRAALPLGEGGVATVSTPDGTLMPESLRYAAASCLRALGEFRADVAIVGTCSASPAMGLTVTTHQDAQVKRAILASSARVVLAATGDKLSRTSSFRFGDIEDIDDLVTTRDAPQVTLDAFRVAGSRVYVADLEHHHHHH”: the “soluble on expression in E. coli” value was “soluble”.
